Assay [1] addresses T1, StrepII-tagged human ROR1 extracellular domain (human, UniProt Q01973 30-406).
T1 construct: extracellular domain; also called ROR1-strep; strep-tagged human ROR1
Kind of assay: SPR (Biacore T200), mAb captured by anti-human Fc-gamma IgG on CM5, ROR1-strep as analyte.

Assay [2] concerns the target T1, StrepII-tagged human ROR1 extracellular …. The experiment in a line: SPR (Biacore T200); mAb captured by goat anti-human Fcγ IgG on CM5; ROR1-strep as analyte (Example 8). The method, then:
Affinity screening was then performed to select the best binders. Affinities were determined using a Biacore T200 instrument (GE Healthcare, Buckinghamshire, UK) and data was evaluated using Biacore Evaluation T200 V2.0 software. To capture mAbs, goat α-human Fc-gamma-specific IgG (Jackson ImmunoResearch, #109-005-098) was covalently immobilized on a CM5 chip (GE Healthcare, #BR-1005-30).

Assay [3] concerns the target T2, twin strep-tagged human ROR2 extracellular domain (human, UniProt Q01974 34-403).
T2 construct: extracellular domain; Expressed in HEK293T; also called ROR2-ECD-TwinStrep
Kind of assay: ELISA on coated twin-strep tagged human ROR2; anti-human Fcγ F(ab')2-HRP; absorbance 490 nm. The method, then: Each well of a 96-well plate was coated with 100 μL of 2 μg/mL strep-tagged human ROR1 (from Example 5) in 0.1 M bicarbonate coating buffer (pH 9.6), and incubated for 12 h at 4° C. A second 96-well plate was likewise prepared with twin-strep tagged human ROR2 (from Example 5).
HRP-conjugated F(ab′)₂ anti-human FC-gamma (Jackson Immunoresearch, 109-036-008) was then added at a 1:20′000 dilution, 100 μl per well, and incubated for 1 h at 37° C. prior to detection using an Spark 10M plate reader (Tecan).
(In general: An ELISA detects its analyte on a solid surface through an enzyme-linked reagent.)

Assay [4] has as its target human ROR1, full length, on cells (human, UniProt Q01973 30-937). Kind of assay: cell-based or functional assay.

T2 sequence (Q01974 34-403): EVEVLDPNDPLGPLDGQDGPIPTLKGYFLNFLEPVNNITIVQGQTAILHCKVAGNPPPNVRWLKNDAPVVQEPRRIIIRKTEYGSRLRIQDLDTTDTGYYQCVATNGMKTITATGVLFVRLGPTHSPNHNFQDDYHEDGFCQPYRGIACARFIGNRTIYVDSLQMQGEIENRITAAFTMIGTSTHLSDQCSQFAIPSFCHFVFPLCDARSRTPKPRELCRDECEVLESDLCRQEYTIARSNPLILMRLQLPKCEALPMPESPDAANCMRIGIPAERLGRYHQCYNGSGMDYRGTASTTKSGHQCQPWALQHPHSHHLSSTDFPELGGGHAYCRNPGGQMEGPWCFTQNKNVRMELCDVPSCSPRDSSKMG
T1 sequence (Q01973 other isoform, or with tags, fused parts or gaps): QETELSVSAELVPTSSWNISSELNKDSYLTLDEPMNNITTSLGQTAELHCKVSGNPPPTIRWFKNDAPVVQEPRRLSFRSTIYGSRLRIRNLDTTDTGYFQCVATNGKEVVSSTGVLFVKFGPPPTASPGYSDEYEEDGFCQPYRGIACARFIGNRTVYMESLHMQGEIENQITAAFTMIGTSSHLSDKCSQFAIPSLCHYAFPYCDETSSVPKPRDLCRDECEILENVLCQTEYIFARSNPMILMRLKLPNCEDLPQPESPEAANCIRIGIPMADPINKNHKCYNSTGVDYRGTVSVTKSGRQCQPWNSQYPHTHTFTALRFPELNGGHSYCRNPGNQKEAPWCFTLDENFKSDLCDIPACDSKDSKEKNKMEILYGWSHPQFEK
Chain of human ROR1, full length, on cells (Q01973 30-937): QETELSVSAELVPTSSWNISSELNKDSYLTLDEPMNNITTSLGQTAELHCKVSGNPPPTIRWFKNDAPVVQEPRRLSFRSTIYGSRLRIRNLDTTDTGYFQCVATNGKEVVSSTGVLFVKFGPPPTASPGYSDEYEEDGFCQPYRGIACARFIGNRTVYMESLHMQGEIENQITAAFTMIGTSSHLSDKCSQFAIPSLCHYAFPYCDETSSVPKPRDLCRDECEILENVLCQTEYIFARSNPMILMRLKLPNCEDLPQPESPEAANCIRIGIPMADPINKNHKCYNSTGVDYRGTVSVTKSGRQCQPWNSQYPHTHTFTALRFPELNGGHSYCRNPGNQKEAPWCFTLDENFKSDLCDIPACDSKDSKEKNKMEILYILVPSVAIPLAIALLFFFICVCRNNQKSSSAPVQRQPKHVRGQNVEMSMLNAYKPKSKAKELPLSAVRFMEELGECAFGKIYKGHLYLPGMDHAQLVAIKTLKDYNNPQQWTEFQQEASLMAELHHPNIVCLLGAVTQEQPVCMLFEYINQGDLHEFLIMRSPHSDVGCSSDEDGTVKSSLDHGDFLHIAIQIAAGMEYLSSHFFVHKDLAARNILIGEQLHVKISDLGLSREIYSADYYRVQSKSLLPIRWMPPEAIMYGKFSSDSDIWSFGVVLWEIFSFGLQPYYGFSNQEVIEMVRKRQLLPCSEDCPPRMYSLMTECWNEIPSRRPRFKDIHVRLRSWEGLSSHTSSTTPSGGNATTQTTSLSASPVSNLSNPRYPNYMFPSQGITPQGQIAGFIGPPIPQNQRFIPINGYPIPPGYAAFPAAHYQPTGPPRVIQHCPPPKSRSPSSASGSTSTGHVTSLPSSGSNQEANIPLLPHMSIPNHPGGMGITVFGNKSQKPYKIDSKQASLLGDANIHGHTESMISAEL

B1: HuXBR1-402(15) (mAb290) (antibody, human IgG1, V domains shown)
VH: QVQLQESGPGLVKPSETLSLTCTVSGFDISSYYMSWVRQPPGKGLEWIGAIGISGNAYYASWAKSRVTISRDTSKNQFSLKLSSVTAADTAVYYCARDHPTYGMDLWGPGTLVTVSS
VL: SYELTQPPSVSVAPGKTARITCEGNNIGSKAVHWYQQKPGQAPVLVIYDDDERPSGIPERFSGSNSGNTATLTISRVEAGDEADYYCQVWDSSAYVFGGGTKLTVLG
notes: Humanized IgG (human IgG1 constant regions, lambda)
With B1, binding in assay [1] was characterised by a dissociation constant (Kd) of 3.55 nM. Also, in assay [2], the affinity, expressed as Kd, was 3.5 nM; the off-rate (koff) – broadly, the first-order rate constant of dissociation – came to 0.00394 s⁻¹; the kon (commonly the rate constant with which the complex forms) stood at 1.11e+06 M⁻¹ s⁻¹.

B2: HuXBR1-402(26) (mAb296) (antibody, human IgG1, V domains shown)
VH: QVQLQESGPGLVKPSETLSLTCTVSGFDISSYYMSWVRQPPGNGLEWIGAIGISGNAYYASWAKSRVTISRDTSKNQFSLKLSSVTAADTAVYYCARDHPTYGMDLWGPGTLVTVSS
VL: SYELTQPLSVSVALGQTARITCEGNNIGSKAVHWYQQKPGLAPVLVIYDDDERPSGIPERFSGSNSGNTATLTISRAQAGDEADYYCQVWDSSAYVFGGGTQLTVLG
notes: as for B1
Turning to B2, in assay [1], the Kd – broadly, a measure of binding affinity in units of concentration – worked out at 3.13 nM. In assay [2], this molecule registered a Kd of 3.1 nM, a koff of 0.00328 s⁻¹ and an on-rate (kon) of 1.05e+06 M⁻¹ s⁻¹.

B3: HuXBR1-402(17) (mAb291) (antibody, human IgG1, V domains shown)
VH: QVQLRESGPGLVKPSETLSLTCTVSGFDISSYYMSWVRQPPGKGLEWIGAIGISGNAYYASWAKSRVTISRDTSKNQFSLKLSSVTAADTAVYYCARDHPTYGMDLWGPGTLVTVSS
VL: SYELTQPPSVSVAPGKTARITCEGNNIGSKAVHWYQQKPGQAPVLVIYDDDERPSGIPERFSGSNSGNTATLTISRVEAGDEADYYCQVWDSSAYVFGGGTKLTVLG
notes: as for B1
For the molecule B3, the dissociation constant Kd in assay [1] was determined as 3.34 nM. In assay [2], binding was characterised by a dissociation constant (Kd) of 3.4 nM, the off-rate (koff) is 0.00322 s⁻¹ and the kon came out at 960000 M⁻¹ s⁻¹.

B4: HuXBR1-402(19) (mAb295) (antibody, human IgG1, V domains shown)
VH: QVQLQESGPGLVKPSETLSLTCTVSGFDISSYYMSWVRQPPGNGLEWIGAIGISGNAYYASWAKSRVTISRDTSKNQFSLKLSSVTAADTAVYYCARDHPTYGMDLWGPGTLVTVSS
VL: SYELTQPPSVSVAPGKTARITCEGNNIGSKAVHWYQQKPGQAPVLVIYDDDERPSGIPERFSGSNSGNTATLTISRVEAGDEADYYCQVWDSSAYVFGGGTKLTVLG
notes: as for B1
Molecule B4 displayed a Kd in assay [1] of 2.98 nM. In assay [2], this molecule registered an equilibrium dissociation constant (Kd) of 3 nM, a koff of 0.00332 s⁻¹ and an association rate constant (kon) of 1.11e+06 M⁻¹ s⁻¹.

B5: HuXBR1-402(3) (mAb288) (antibody, human IgG1, V domains shown)
VH: QVQLRESGPGLVKPSETLSLTCTVSGFDISSYYMSWVRQPPGKGLEWIGAIGISGNAYYASWAKSRVTISRDTSKNQFSLKLSSVTAADTAVYYCARDHPTYGMDLWGPGTLVTVSS
VL: SYELTQPLSVSVALGQTARITCEGNNIGSKAVHWYQQKPGQAPVLVIYDDDERPSGIPERFSGSNSGNTATLTISRAQAGDEADYYCQVWDSSAYVFGGGTKLTVLG
notes: as for B1
In assay [1], B5 gave a Kd of 3.16 nM. Besides, in assay [2], the dissociation constant Kd is 3.2 nM, the koff turned out to be 0.00375 s⁻¹ and the association rate constant (kon) worked out at 1.19e+06 M⁻¹ s⁻¹.

B6: HuXBR1-402(8) (mAb289) (antibody, human IgG1, V domains shown)
VH: QVQLQESGPGLVKPSETLSLTCTVSGFDISSYYMSWVRQPPGKGLEWIGAIGISGNAYYASWAKSRVTISRDTSKNQFSLKLSSVTAADTAVYYCARDHPTYGMDLWGPGTLVTVSS
VL: SYELTQPPSVSVSPGQTAIITCEGNNIGSKAVHWYQQKPGLSPVLVIYDDDERPSGIPERFSGSNSGNTATLTVSGTQDMDEADYYCQVWDSSAYVFGGGTKLTVLG
notes: as for B1
On to B6, for which the Kd in assay [1] stood at 2.14 nM. In assay [2], this molecule gave an equilibrium dissociation constant (Kd) of 2.1 nM, a dissociation rate constant (koff) of 0.00276 s⁻¹ and an on-rate (kon) of 1.29e+06 M⁻¹ s⁻¹.

B7: ERR1-324 (mAb034) IgG with C-terminal sortase and Strep tags (antibody, V domains shown)
VH: QSLEESGGGLVQPGESLTLTCTVSGFSLSRNGMTWVRQAPGKGLEWIGIITSSGDKYYATWAKGRFTISKTSSTTVDLKMTSLTTEDTATYFCARGTVSSDIWGPGTLVTISS
VL: ELVLTQTPSPVSAAVGGTVTINCQASQSVYGNNELAWYQQKPGQPPKLLIYRASILTSGVPSRFKGSGSGTQFTLTISNVQREDAATYYCLGGYVSQSYRAAFGGGTELEIL
notes: Human IgG1 constant regions, kappa light chain
In the case of B7, the binding result in assay [3] is “no binding (tested: about 500 ng/ml)”.

B8: ERR1-Top43-G5-PNU (adc204) antibody drug conjugate (other)
VH: QSLEESGGRLVTPGTPLTLTCTVSGFSLSSYWMSWVRQAPGKGLEWIGAIYGSGNTYYASWAKGRFTISKTSTTVDLKITSPTTEDTATYFCARDVHSTATDLWGPGTLVTISS
VL: SYELTQLPSVSVSLGQTARITCGGNNIGSKAVNWYQQKPGLAPGLLIYNDDERPSGVPDRFSGSNSGDTATLTISGAQAGDEADYYCQLWDSSAGAYVFGGGTQLTVTG
modifications: Gly5-EDA-PNU joined by sortase to the C-terminal G5SLPETG tag of the full light chain; Gly5-EDA-PNU joined by sortase to the C-terminal LPETG tag of the full heavy chain
As for B8, in assay [4], the “IC50 of in vitro cell killing, HS 578T cells (hROR1 status positive)” value came to 0.707 µg/mL and the “IC50 of in vitro cell killing, MDA-MD-468 cells (hROR1 status positive)” value came out at 0.143 µg/mL.

B9: ERR1-Top43 (mAb036) IgG with C-terminal sortase and Strep tags (antibody, V domains shown)
VH: QSLEESGGRLVTPGTPLTLTCTVSGFSLSSYWMSWVRQAPGKGLEWIGAIYGSGNTYYASWAKGRFTISKTSTTVDLKITSPTTEDTATYFCARDVHSTATDLWGPGTLVTISS
VL: SYELTQLPSVSVSLGQTARITCGGNNIGSKAVNWYQQKPGLAPGLLIYNDDERPSGVPDRFSGSNSGDTATLTISGAQAGDEADYYCQLWDSSAGAYVFGGGTQLTVTG
notes: Human IgG1 constant regions
Take B9: the binding result in assay [3] was “no binding (tested: about 500 ng/ml)”.

B10: ERR1-403 (mAb035) IgG with C-terminal sortase and Strep tags (antibody, V domains shown)
VH: QEQLKESGRGLVQPGGSLKLSCKASGFDFSGWYMTWVRQAPGKGLEWIGTIGTTKGRTYYASWVNGRFTISSNAQNTVDLQMNSLTAADRATYFCVRGSDYFDLWGPGTLVTISS
VL: SYELTQLPSVSVSLGQTARITCGGNSIGSKAVNWYQQKPGLAPGLLIYDDDERPSGVPARFSGSNSGDTATLTISGAQAGDEADYYCQLWDSSAGAYVFGGGTQLTVTG
notes: Human IgG1 constant regions
Regarding B10, the binding result in assay [3] is on record as “no binding (tested: about 500 ng/ml)”.

B11: XBR1-402 (mAb031) IgG with C-terminal sortase and Strep tags (antibody, V domains shown)
VH: QEQQKESGGGLFKPTDTLTLTCTASGFDISSYYMSWVRQAPGNGLEWIGAIGISGNAYYASWAKSRSTITRNTNLNTVTLKMTSLTAADTATYFCARDHPTYGMDLWGPGTLVTVSS
VL: SYELTQLPSVSVSLGQTARITCEGNNIGSKAVHWYQQKPGLAPGLLIYDDDERPSGVPDRFSGSNSGDTATLTISGAQAGDEADYYCQVWDSSAYVFGGGTQLTVTG
notes: Human IgH-gamma1 and IgL-lambda constant regions
On to B11, for which the binding result in assay [3] is given as “no binding (tested: about 500 ng/ml)”.

B12: ERR1-306 (mAb033) IgG with C-terminal sortase and Strep tags (antibody, V domains shown)
VH: QEQLKESGGGLVQPGGSLKLSCKASGFDLSNYGVSWVRQAPGKGLEWIGYIDPTFDYTYYASWVNGRFSISRENTQNTVSLQINSLTPADTATYFCARWVYGVDDYGDGNWLDLWGQGTLVTISS
VL: QFVLTQSPSVSAALGASAKLTCTLSSAHKTYTIDWYQQQQGEAPRYLMELKSDGSYTKGTGVPDRFSGSSSGADRYLIIPSVQADDEADYYCGTDYSGGYVFGGGTQLTVTG
notes: Human IgG1 constant regions
For the molecule B12, the binding result in assay [3] is recorded as “no binding (tested: about 500 ng/ml)”.
